In one assay the target is DR5 (3RA). The assay can be described thus: ELISA. Background: ELISA stands for enzyme-linked immunosorbent assay.
Another assay concerns the target DR5 (WT) (UniProt O14763 56-210, biotinylated for BLI (site not stated)). The experiment in a line: ELISA.
The target in another assay is rDR5-IgG4-Fc (UniProt O14763 56-210, biotinylated for BLI (site not stated)). The assay can be described thus: BLI. For orientation: Biolayer interferometry detects binding as a change in optical thickness at a sensor tip.
Assay [1] concerns the target rDR5-IgG4-Fc SGE:AAA (135-137) NS Mut. The assay can be described thus: BLI.
The target in assay [2] is rDR5-IgG4-Fc KYGQ:AAGA (45-48) Mut. The assay can be described thus: BLI.
Assay [3] concerns the target rDR5-IgG4-Fc EMCR:AACR (98-101) Mut (90s Mut) (UniProt O14763 56-210, biotinylated for BLI (site not stated)). The assay can be described thus: BLI.
In assay [4] the target is T1, rDR5-IgG4 (recombinant wild type DR5 with IgG4 Fc) (UniProt O14763 56-210, biotinylated for BLI (site not stated)). The assay can be described thus: ELISA.
A further assay addresses R104Y DR5. The assay can be described thus: BLI.
Assay [5] concerns the target T1, rDR5-IgG4 (recombinant wild type DR5 …). The assay can be described thus: BLI.
In a further assay the target is R104W DR5. The experiment in a line: BLI.
For assay [6], the target named is T1, rDR5-IgG4 (recombinant wild type DR5 …). The experiment in a line: ELISA. The source holds these as a separate data set.
Assay [7] has the same target. The assay can be described thus: BLI. The source holds these as a separate data set.
The target in another assay is KKCR. The experiment in a line: ELISA.
The target in a further assay is Chimp DR5. The experiment in a line: BLI.
Another assay deals with RKCSR DR5. The experiment in a line: BLI.
The target in a further assay is Monkey DR5. The experiment in a line: BLI.
The target of the next assay is RKCAR DR5. The assay can be described thus: BLI.

A value given as a limit tells only on which side of the number the result lay.

Chain of R104W DR5 (chain, as listed by the source R104W): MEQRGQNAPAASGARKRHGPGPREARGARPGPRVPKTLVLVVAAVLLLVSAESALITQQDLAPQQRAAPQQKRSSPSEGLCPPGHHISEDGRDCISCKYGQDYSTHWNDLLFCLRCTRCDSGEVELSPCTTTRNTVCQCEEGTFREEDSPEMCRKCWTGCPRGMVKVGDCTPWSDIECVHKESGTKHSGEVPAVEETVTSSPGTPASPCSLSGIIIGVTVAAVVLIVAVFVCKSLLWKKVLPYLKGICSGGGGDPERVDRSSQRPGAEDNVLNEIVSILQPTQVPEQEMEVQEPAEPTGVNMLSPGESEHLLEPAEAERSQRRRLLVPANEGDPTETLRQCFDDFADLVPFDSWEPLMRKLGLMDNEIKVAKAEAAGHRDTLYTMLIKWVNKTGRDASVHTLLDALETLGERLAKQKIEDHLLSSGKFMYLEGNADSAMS
Chain of R104Y DR5 (chain, as listed by the source R104Y): as the sequence (chain, as listed by the source R104W) above, with W157Y counted along it

B1: KMTR2 (antibody, V domains shown)
VH: QVQLVQSGAEMKKPGASVKVSCKTSGYTFTNYKINWVRQAPGQGLEWMGWMNPDTDSTGYPQKFQGRVTMTRNTSISTAYMELSSLRSEDTAVYYCARSYGSGSYYRDYYYGMDVWGQGTTVTVSS
VL: EIVLTQSPATLSLSPGERATLSCRASQSVSSYLAWYQQKPGQAPRLLIYDASNRATGIPARFSGSGSGTDFTLTISSLEPEDFAVYYCQQRSNWPLTFGGGTKVEIKR
Usually Kd stands for the constant that tells how readily two partners part at equilibrium. The koff is the rate constant with which the complex falls apart. For the molecule B1, the Kd with DR5 (3RA) is 0.087 nM; in the assay with DR5 (WT), 0.088 nM; in the assay with rDR5-IgG4-Fc, less than 0.001 nM. In addition, the koff in [1] amounted to 2.01e-05 s⁻¹; in assay [2], 1e-07 s⁻¹; in [3], 1.61e-05 s⁻¹.

B2: lexatumumab (antibody, V domains shown)
VH: EVQLVQSGGGVERPGGSLRLSCAASGFTFDDYGMSWVRQAPGKGLEWVSGINWNGGSTGYADSVKGRVTISRDNAKNSLYLQMNSLRAEDTAVYYCAKILGAGRGWYFDLWGKGTTVTVSS
VL: SSELTQDPAVSVALGQTVRITCQGDSLRSYYASWYQQKPGQAPVLVIYGKNNRPSGIPDRFSGSSSGNTASLTITGAQAEDEADYYCNSRDSSGNHVVFGGGTKLTVL
On to B2, for which the Kd in [4] worked out at 0.032 nM; with R104Y DR5 it was 1.93 nM; in assay [5] it was 0.0376 nM; with R104W DR5, 1.82 nM; in assay [6], 0.081 nM; in [7], 0.519 nM.

B3: Antibody (antibody, V domains shown)
VH: EVQLVQSGGGVERPGGSLRLSCAASGFTFDDYGMSWVRQAPGKGLEWVSGINWNGGSTGYADSVKGRVTISRDNAKNSLYLQMNSLRAEDTAVYYCAKILGAGRGWYFDLWGKGTTVTVSS
VL: SSELTQDPAVSVALGQTVRITCQGDSLRSYYASWYQQKPGQAPVLVIYGKNNRPSGIPDRFSGSSSGNTASLTITGAQAEDEADYYCNSRDSSGNHVVFGGGTKLTVL
B3 displayed a dissociation constant Kd in the assay with KKCR of 1.19 nM.

B4: Biot-Lexa (antibody, V domains shown)
VH: EVQLVQSGGGVERPGGSLRLSCAASGFTFDDYGMSWVRQAPGKGLEWVSGINWNGGSTGYADSVKGRVTISRDNAKNSLYLQMNSLRAEDTAVYYCAKILGAGRGWYFDLWGKGTTVTVSS
VL: SSELTQDPAVSVALGQTVRITCQGDSLRSYYASWYQQKPGQAPVLVIYGKNNRPSGIPDRFSGSSSGNTASLTITGAQAEDEADYYCNSRDSSGNHVVFGGGTKLTVL
As to B4, the Kd with Chimp DR5 was less than 0.001 nM; with RKCSR DR5, 0.215 nM; in the assay with Monkey DR5, 0.014 nM; with RKCAR DR5, 0.266 nM.

The values are drawn from patent US20250376532A1 (published 2025).
